From US20240150402 come the findings set out here.

The target of data set [1] is Final pools of substrates selected with recombinant human matriptase-1.
Data set [2] concerns the target activatable antibodies comprising substrates selected for cleavage by matriptase (5 substrates tested), having the 3954 mask and C225v5 variant of cetuximab.
Data set [3] addresses activatable antibodies comprising substrates selected for cleavage by uPA and matriptase (7 substrates tested), having the 3954 mask and C225v5 variant of cetuximab.

B1: Human matriptase-1 (protein)
chain: GSDEKDCDCGLRSFTRQARVVGGTDADEGEWPWQVSLHALGQGHICGASLISPNWLVSAAHCYIDDRGFRYSDPTQWTAFLGLHDQSQRSAPGVQERRLKRIISHPFFNDFTFDYDIALLELEKPAEYSSMVRPICLPDASHVFPAGKAIWVTGWGHTQYGGTGALILQKGEIRVINQTTCENLLPQQITPRMMCVGFLSGGVDSCQGDSGGPLSSVEADGRIFQAGVVSWGDGCAQRNKPGVYTRLPLFRDWIKENTGV
In the case of B1, the “cleavage (flow cytometry of displayed substrate pools)” value in data set [1] is “The pools were cleaved by matriptase-1”. Further, the kcat/KM entry in data set [2] is on record as “kcat/KM values ranging from about 6,500 to 100,000 M^-1s^-1 for matriptase (5 substrates tested)”; in data set [3], “from about 3,000 to 100,000 M^-1s^-1 for matriptase (7 substrates tested)”.

B2: Human plasmin (protein)
chain: KVYLSECKTGNGKNYRGTMSKTKNGITCQKWSSTSPHRPRFSPATHPSEGLEENYCRNPDNDPQGPWCYTTDPEKRYDYCDILECEEECMHCSGENYDGKISKTMSGLECQAWDSQSPHAHGYIPSKFPNKNLKKNYCRNPDRELRPWCFTTDPNKRWELCDIPRCTTPPPSSGPTYQCLKGTGENYRGNVAVTVSGHTCQHWSAQTPHTHNRTPENFPCKNLDENYCRNPDGKRAPWCHTTNSQVRWEYCKIPSCDSSPVSTEQLAPTAPPELTPVVQDCYHGDGQSYRGTSSTTTTGKKCQSWSSMTPHRHQKTPENYPNAGLTMNYCRNPDADKGPWCFTTDPSVRWEYCNLKKCSGTEASVVAPPPVVLLPDVETPSEEDCMFGNGKGYRGKRATTVTGTPCQDWAAQEPHRHSIFTPETNPRAGLEKNYCRNPDGDVGGPWCYTTNPRKLYDYCDVPQCAAPSFDCGKPQVEPKKCPGRVVGGCVAHPHSWPWQVSLRTRFGMHFCGGTLISPEWVLTAAHCLEKSPRPSSYKVILGAHQEVNLEPHVQEIEVSRLFLEPTRKDIALLKLSSPAVITDKVIPACLPSPNYVVADRTECFITGWGETQGTFGAGLLKEAQLPVIENKVCNRYEFLNGRVQSTELCAGHLAGGTDSCQGDSGGPLVCFEKDKYILQGVTSWGLGCARPNKPGVYVRVSRFVTWIEGVMRNN
Regarding B2, the “cleavage (flow cytometry of displayed substrate pools)” value in data set [1] is on record as “but not by tPA or plasmin”.

B3: Human tPA (protein)
chain: SYQVICRDEKTQMIYQQHQSWLRPVLRSNRVEYCWCNSGRAQCHSVPVKSCSEPRCFNGGTCQQALYFSDFVCQCPEGFAGKCCEIDTRATCYEDQGISYRGTWSTAESGAECTNWNSSALAQKPYSGRRPDAIRLGLGNHNYCRNPDRDSKPWCYVFKAGKYSSEFCSTPACSEGNSDCYFGNGSAYRGTHSLTESGASCLPWNSMILIGKVYTAQNPSAQALGLGKHNYCRNPDGDAKPWCHVLKNRRLTWEYCDVPSCSTCGLRQYSQPQFRIKGGLFADIASHPWQAAIFAKHRRSPGERFLCGGILISSCWILSAAHCFQERFPPHHLTVILGRTYRVVPGEEEQKFEVEKYIVHKEFDDDTYDNDIALLQLKSDSSRCAQESSVVRTVCLPPADLQLPDWTECELSGYGKHEALSPFYSERLKEAHVRLYPSSRCTSQHLLNRTVTDNMLCAGDTRSGGPQANLHDACQGDSGGPLVCLNDGRMTLVGIISWGLGCGQKDVPGVYTKVTNYLDWIRDNMRP
Consider B3, for which, in data set [1], the “cleavage (flow cytometry of displayed substrate pools)” value was “but not by tPA or plasmin”. In addition, the “cleavage (flow cytometry of displayed substrate pool)” value with pool SMP17 is on record as “resistance to tPA”.
